# According to IntAct's records for PubMed 9153189:
# B1: Tumor necrosis factor receptor superfamily member 14 (Homo sapiens), Q92956 (parent)
# chain: MEPPGDWGPPPWRSTPKTDVLRLVLYLTFLGAPCYAPALPSCKEDEYPVGSECCPKCSPGYRVKEACGELTGTVCEPCPPGTYIAHLNGLSKCLQCQMCDPAMGLRASRNCSRTENAVCGCSPGHFCIVQDGDHCAACRAYATSSPGQRVQKGGTESQDTLCQNCPPGTFSPNGTLEECQHQTKCSWLVTKAGAGTSSSHWVWWFLSGSLVIVIVCSTVGLIICVKRRKPRGDVVKVIVSVQRKRQEAEGEATVIEALQAPPDVTTVAVEETIPSFTGRSPNH
# B2: Tumor necrosis factor receptor superfamily member 14 (Homo sapiens), Q92956 (parent)
# chain: B1 chain
# partner: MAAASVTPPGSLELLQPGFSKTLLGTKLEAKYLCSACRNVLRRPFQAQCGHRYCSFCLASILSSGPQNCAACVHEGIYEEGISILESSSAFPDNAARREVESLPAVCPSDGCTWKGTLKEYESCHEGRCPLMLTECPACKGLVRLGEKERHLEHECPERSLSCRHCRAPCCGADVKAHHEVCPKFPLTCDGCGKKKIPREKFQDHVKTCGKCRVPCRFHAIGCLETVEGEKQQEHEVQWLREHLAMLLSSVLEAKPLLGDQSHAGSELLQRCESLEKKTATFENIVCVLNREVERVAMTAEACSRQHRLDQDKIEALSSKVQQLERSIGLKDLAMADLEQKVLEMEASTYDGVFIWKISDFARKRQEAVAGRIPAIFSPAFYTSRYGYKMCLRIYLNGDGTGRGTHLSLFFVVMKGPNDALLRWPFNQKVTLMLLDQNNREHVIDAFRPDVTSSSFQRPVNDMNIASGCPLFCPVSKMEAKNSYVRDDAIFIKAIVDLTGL
# Variants of: B1
# Conditions: with traf5_human TRAF5, O00463
# traf5_human TRAF5, O00463, sequence (O00463 whole entry): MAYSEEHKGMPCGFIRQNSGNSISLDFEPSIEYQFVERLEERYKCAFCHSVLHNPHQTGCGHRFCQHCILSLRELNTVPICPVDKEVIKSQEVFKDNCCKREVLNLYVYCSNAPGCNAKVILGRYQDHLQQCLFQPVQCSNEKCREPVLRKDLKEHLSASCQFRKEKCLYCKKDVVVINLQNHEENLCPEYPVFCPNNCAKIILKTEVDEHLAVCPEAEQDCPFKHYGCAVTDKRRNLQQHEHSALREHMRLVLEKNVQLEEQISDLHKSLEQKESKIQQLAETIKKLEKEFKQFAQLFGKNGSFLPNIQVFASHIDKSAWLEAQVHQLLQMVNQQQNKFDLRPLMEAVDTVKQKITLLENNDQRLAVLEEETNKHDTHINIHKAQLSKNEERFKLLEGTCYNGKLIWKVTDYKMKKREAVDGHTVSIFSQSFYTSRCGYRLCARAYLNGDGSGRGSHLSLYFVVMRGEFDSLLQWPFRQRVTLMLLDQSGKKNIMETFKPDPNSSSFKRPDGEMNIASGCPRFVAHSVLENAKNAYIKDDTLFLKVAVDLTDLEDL
row,Variant,effect of a mutation on the interaction
1,MEPPGDWGPPPWRSTPKTDVLRLVLYLTFLGAPCYAPALPSCKEDEYPVGSECCPKCSPGYRVKEACGELTGTVCEPCPPGTYIAHLNGLSKCLQCQMCDPAMGLRASRNCSRTENAVCGCSPGHFCIVQDGDHCAACRAYATSSPGQRVQKGGTESQDTLCQNCPPGTFSPNGTLEECQHQTKCSWLVTKAGAGTSSSHWVWWFLSGSLVIVIVCSTVGLIICVKRRKPRGDVVKVIVSVQRKRQEAEGEATVIEALQAPPDVTTVAVEATIPSFTGRSPNH [E271A],decreasing interaction

# Variants of: B2
# Conditions: with traf2_human TRAF2, Q12933
row,Variant,effect of a mutation on the interaction
1,MEPPGDWGPPPWRSTPKTDVLRLVLYLTFLGAPCYAPALPSCKEDEYPVGSECCPKCSPGYRVKEACGELTGTVCEPCPPGTYIAHLNGLSKCLQCQMCDPAMGLRASRNCSRTENAVCGCSPGHFCIVQDGDHCAACRAYATSSPGQRVQKGGTESQDTLCQNCPPGTFSPNGTLEECQHQTKCSWLVTKAGAGTSSSHWVWWFLSGSLVIVIVCSTVGLIICVKRRKPRGDVVKVIVSVQRKRQEAEGEATVIEALQAPPDVTTVAVEATIPSFTGRSPNH [E271A],decreasing interaction
